Assay [1] concerns the target full length human CCR8 (hCCR8) (human) (UniProt P51685). Description: flow cytometry, CD4+Foxp3+ gated cells of human PBMC stimulated with IL-2 (200 U/ml) for 2 days, anti-human IgG Fc against Foxp3.
Assay [2] shares this target. Description: flow cytometry, CD4+Foxp3+ gated cells of resting human PBMC, anti-human IgG Fc against Foxp3. A general note: A flow cytometer gives signals particle by particle.
Assay [3] has the same target. As to the kind of experiment: flow cytometry, CD4+Foxp3+ gated cells of OKT-3 stimulated human PBMC, anti-human IgG APC against Foxp3 PE.

As for Anti RSV (antibody), the percent of CD4+Foxp3+ cells in the gate 'Foxp3 ahigG Subset' in assay [1] is 0.36%; in assay [2], 0.11%.
The substance “anti-DNP (dinitrophenyl) control antibody” gave a percent of CD4+Foxp3+ cells stained (upper right quadrant) in assay [3] of 6.23%.

These data come from patent US20230279130A1.
